The text below walks through data of publication PMC11706625, “Structural and bioinformatics analyses identify deoxydinucleotide-specific nucleases and their association with genomic islands in gram-positive bacteria” (Nucleic Acids Research, 2025).

The target of series [1] is NrnC from Bartonella henselae (Bartonella henselae). Nature of the series: SEC-MALS; 1-2 mg/ml (~40-80 uM) protein injected on Superdex 200 Increase 10/300 GL in 25 mM HEPES-NaOH, 150 mM NaCl pH 7.5, room temperature. On the technique in general: Size exclusion chromatography separates by hydrodynamic size, large species first.
Series [2] concerns the molecule itself. The description is as above.

Turning to NrnC from Bartonella henselae (enzyme), in series [1], the stoichiometry N came to 8.

B1: NrnC homolog from Okeania (Cyanobacteria) (enzyme)
chain: MSDFQVCDRDLTEAILSDYLQADSIAVDTETMGLLPWRDRLCLVQLCDAQGKVTAIRIEKGQQEAPNLKQLMEATGIVKIFHFARFDVAMLQHHLDIKVSPIFCTKIASKLARTYTGKHGLKDLVMELEKVELDKSAQSSDWGNAENLTEEQLSYAANDVRYLLSVKEKLIKMLKREERWELAQQCFECLPVFVGLDLLQYKDIFEH
On to B1, for which the “stoichiometry N” value in series [2] worked out at 8.

The stoichiometry N is the number of molecules, sites or subunits per partner or assembly.
